Reference: IntAct's records for PubMed 17548821

How the values were obtained:
[1] = target: lrp8_human LRP8 (UniProt Q14114)
[2] = target: vldlr_human VLDLR (UniProt P98155)

Sequence of lrp8_human LRP8 (Q14114 whole entry): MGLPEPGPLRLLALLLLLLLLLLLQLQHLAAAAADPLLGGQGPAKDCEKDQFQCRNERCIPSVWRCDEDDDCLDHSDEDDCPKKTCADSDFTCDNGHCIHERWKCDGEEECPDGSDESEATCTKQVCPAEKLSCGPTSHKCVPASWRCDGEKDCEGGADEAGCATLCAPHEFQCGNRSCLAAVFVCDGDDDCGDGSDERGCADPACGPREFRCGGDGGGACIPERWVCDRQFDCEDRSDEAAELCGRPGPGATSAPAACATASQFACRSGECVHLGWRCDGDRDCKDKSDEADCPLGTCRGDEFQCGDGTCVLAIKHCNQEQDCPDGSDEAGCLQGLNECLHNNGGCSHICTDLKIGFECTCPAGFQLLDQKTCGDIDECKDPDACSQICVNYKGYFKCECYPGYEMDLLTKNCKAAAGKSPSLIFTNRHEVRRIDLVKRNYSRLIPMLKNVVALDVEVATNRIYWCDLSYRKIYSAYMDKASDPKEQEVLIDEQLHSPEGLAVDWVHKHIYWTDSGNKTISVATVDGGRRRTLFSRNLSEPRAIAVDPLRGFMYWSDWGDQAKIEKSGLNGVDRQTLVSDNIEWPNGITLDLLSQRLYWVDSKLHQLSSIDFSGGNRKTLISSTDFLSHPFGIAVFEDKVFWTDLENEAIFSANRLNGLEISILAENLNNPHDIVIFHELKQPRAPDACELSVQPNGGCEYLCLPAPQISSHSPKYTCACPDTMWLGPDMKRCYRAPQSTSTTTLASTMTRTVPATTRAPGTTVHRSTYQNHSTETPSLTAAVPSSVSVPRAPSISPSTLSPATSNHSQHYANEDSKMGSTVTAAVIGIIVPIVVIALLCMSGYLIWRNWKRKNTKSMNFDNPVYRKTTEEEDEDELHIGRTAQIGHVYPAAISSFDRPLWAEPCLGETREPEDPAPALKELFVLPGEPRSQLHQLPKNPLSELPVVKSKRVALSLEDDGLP

Row | effect of a mutation on the interaction [1] | effect of a mutation on the interaction [2] | Substance
1 | disrupting interaction strength |  | Reelin (Mus musculus), Q60841 K2360A
2 | disrupting interaction strength |  | Reelin (Mus musculus), Q60841 K2360A;K2467A
3 | disrupting interaction strength | disrupting interaction strength | Reelin (Mus musculus), Q60841 K2467A
